Data reported in patent publication US20060073152A1 (Genentech, published 2006).
Positions of bridges follow the written chain, without caps; N, C: chain ends. No end group written: not given here.

B1: HBC-H15 (peptide)
peptide: KTEICYFPGICWMSG
modifications: not fully specified (bridges); cysteine pairing not given here; also: phage-displayed
notes: on phage
B2: SA24 (peptide)
peptide: Ac-IEDICLPRWGCLWED-NH2
modifications: not fully specified (bridges); printed as Ac IEDICLPRWGCLWEDNH2; cysteine pairing not given here
notes: free peptide
B3: SA20 (peptide)
peptide: Ac-QRLIEDICLPRWGCLWEDDF-NH2
modifications: not fully specified (bridges); printed as Ac QRLIEDICLPRWGCLWEDDF NH2; cysteine pairing not given here
notes: free peptide
B4: SA22 (peptide)
peptide: Ac-RLIEDICLPRWGCLWED-NH2
modifications: not fully specified (bridges); printed as Ac RLIEDICLPRWGCLWEDNH2; cysteine pairing not given here
notes: free peptide
B5: SA23 (peptide)
peptide: Ac-LIEDICLPRWGCLWED-NH2
modifications: not fully specified (bridges); printed as Ac LIEDICLPRWGCLWEDNH2; cysteine pairing not given here
notes: free peptide
B6: SA25 (peptide)
peptide: Ac-EDICLPRWGCLWED-NH2
modifications: not fully specified (bridges); printed as Ac EDICLPRWGCLWEDNH2; cysteine pairing not given here
notes: free peptide
B7: SA19 (peptide)
peptide: DICLPRWGCL-NH2
modifications: not fully specified (bridges); printed as DICLPRWGCLNH2; cysteine pairing not given here
notes: free peptide
B8: SA18 (peptide)
peptide: ICLPRWGCLW-NH2
modifications: not fully specified (bridges); printed as ICLPRWGCLWNH2; cysteine pairing not given here
notes: free peptide

The binders below were run against T1, rat serum albumin (rat, UniProt P02770 25-608) (assay: phage binding).
T1 construct: also called Rat SA; RSA
T1 sequence (P02770 25-608 limits assumed): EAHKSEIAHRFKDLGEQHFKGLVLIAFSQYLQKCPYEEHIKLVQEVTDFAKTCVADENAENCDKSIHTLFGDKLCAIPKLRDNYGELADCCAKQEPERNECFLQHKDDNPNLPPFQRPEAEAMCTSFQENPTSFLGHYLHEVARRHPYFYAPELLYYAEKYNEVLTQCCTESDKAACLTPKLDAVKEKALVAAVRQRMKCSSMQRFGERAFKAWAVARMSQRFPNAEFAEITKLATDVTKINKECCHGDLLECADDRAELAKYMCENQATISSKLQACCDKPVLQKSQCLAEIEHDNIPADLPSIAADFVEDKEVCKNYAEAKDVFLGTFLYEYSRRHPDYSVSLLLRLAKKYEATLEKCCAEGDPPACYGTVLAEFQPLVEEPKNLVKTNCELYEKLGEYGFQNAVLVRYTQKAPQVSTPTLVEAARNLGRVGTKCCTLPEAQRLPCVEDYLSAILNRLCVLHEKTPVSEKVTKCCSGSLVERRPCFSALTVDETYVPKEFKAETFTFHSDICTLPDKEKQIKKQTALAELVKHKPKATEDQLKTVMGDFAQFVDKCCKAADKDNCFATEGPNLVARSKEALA
QRHMMDFCLPKWGCLWGDGY (not fully specified (bridges); cysteine pairing not given here, on phage) [RB-R4]: binds. ERQMVDFCLPKWGCLWGDGF (on phage) [RB-R11]: binds. QRPIMDFCLPKWGCLWEDGF (on phage) [RB-R7]: binds. QGYMVDFCLPRWGCLWGDAN (not fully specified (bridges); cysteine pairing not given here, on phage) [RB-R12]: binds. KMGRVDFCLPKWGCLWGDEL (not fully specified (bridges); cysteine pairing not given here, on phage) [RB-R13]: binds. QSQLEDFCLPKWGCLWGDGF (not fully specified (bridges); cysteine pairing not given here, on phage) [RB-R15]: binds. QGGMGDFCLPQWGCLWGEDL (on phage) [RB-R17]: binds. DICLPRWGCLW (on phage) [RC-R13]: binds. DICLPVWGCLW (on phage; also called RC-R2; RC-R3) [RC-R1]: binds. EWDVCLPHWGCLWDG (on phage) [RBC-R16]: binds. WDDICFRDWGCLWGS (on phage) [RBC-R7]: binds. MDDICLHHWGCLWDE (on phage) [RBC-R1]: binds. MDDLCLPNWGCLWGD (not fully specified (bridges); cysteine pairing not given here, on phage) [RBC-R2]: binds. FEDFCLPNWGCLWGS (on phage) [RBC-R4]: binds. FEDLCVVRWGCLWGD (not fully specified (bridges); cysteine pairing not given here, on phage) [RBC-R6]: binds. WEDLCLPDWGCLWED (not fully specified (bridges); cysteine pairing not given here, on phage) [RBC-R5]: binds. SEDFCLPVWGCLWED (not fully specified (bridges); cysteine pairing not given here, on phage) [RBC-R9]: binds. DFDLCLPDWGCLWDD (on phage) [RBC-R10]: binds. NWDLCFPDWGCLWDD (on phage) [RBC-R8]: binds. EEDLCLPVWGCLWGA (on phage) [RBC-R14]: binds. EEDVCLPVWGCLWEG (on phage) [RBC-R20]: binds. MFDLCLPKWGCLWGN (not fully specified (bridges); cysteine pairing not given here, on phage) [RBC-R12]: binds. EFDLCLPTWGCLWED (on phage) [RBC-R13]: binds. MWDVCFPDWGCLWDV (not fully specified (bridges); cysteine pairing not given here, on phage) [RBC-R15]: binds. EWDVCFPAWGCLWDQ (on phage) [RBC-R18]: binds. VWDLCLPQWGCLWDE (on phage) [RBC-R11]: binds. DTCADLVRLGLECWA (on phage) [RD-R2]: binds. DTCEDLVRLGLECWA (on phage) [RD-R5]: binds. NTCADLVRLGLECWA (on phage) [RD-R7]: binds. DTCDDLVQLGLECWA (on phage) [RD-R11]: binds. DSCGDLLRLGLECWA (on phage) [RD-R6]: binds. DTCSDLVGLGLECWA (on phage) [RD-R1]: binds.

These binders were tested against T2, human serum albumin (human, UniProt P02768 25-609) (assay: phage binding).
T2 construct: also called Human SA; HuSA
QTELCYFPGICWNES (on phage) [HBC-H13]: binds. TTEMCYFPGICWKTE (on phage) [HBC-H14]: binds. B1: binds. IVEMCYYPGICWISP (on phage) [HB-H10]: binds. SGAICYVPGICWTHA (on phage) [HB-H7]: binds.

What follows are binders tested against T3, rabbit serum albumin (rabbit, UniProt P49065 25-608) (assay: peptide competition; head prints RSA, read as rabbit).
T3 construct: also called Rabbit SA; BuSA
T3 sequence (P49065 25-608 limits assumed): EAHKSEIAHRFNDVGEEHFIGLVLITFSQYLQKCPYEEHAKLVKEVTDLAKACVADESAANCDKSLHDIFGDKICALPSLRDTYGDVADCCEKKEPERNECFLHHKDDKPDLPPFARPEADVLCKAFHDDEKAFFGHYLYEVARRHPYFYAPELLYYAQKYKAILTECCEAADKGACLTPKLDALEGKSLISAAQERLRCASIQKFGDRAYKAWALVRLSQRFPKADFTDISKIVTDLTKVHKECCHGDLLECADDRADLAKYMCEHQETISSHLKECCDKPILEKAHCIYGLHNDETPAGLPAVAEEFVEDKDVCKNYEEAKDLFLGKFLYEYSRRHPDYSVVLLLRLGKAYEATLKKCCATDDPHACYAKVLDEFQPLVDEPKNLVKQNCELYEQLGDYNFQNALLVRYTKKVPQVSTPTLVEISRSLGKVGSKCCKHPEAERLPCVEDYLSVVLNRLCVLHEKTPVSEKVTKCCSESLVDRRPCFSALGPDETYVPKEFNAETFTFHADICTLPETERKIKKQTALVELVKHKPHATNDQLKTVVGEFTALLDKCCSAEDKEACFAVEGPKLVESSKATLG
For B2, the IC50 was 1380 nM. In the case of B3, the IC50 is reported as 260 nM. B4 was tested, and the IC50 was 430 nM. In the case of Ac-RLIEDICLPRWGCLWE-NH2 (disulfide 7-13 (inferred), free peptide) [SA29], the IC50 is reported as 400 nM. With Ac-RLIEDICLPRWGCLW-NH2 (disulfide 7-13 (inferred), free peptide) [SA31] the IC50 was 200 nM. Binder Ac-RLIEDICLPRWGCL-NH2 (disulfide 7-13 (inferred), free peptide) [SA33] has an IC50 of 4310 nM. In the case of B5, the IC50 is reported as 360 nM. In the case of B6, the IC50 is reported as 2730 nM. Ac-DICLPRWGCLWED-NH2 (disulfide 3-9 (inferred), free peptide) [SA26] gave an IC50 of 3120 nM. In the case of Ac-ICLPRWGCLWED-NH2 (disulfide 2-8 (inferred), free peptide) [SA27], the IC50 is reported as 86700 nM. Ac-IEDICLPRWGCLWE-NH2 (disulfide 5-11 (inferred), free peptide) [SA30] was tested, and the IC50 was 1800 nM. Binder Ac-EDICLPRWGCLW-NH2 (disulfide 4-10 (inferred), free peptide) [SA32] has an IC50 of 2170 nM. In the case of Ac-DICLPRWGCL-NH2 (disulfide 3-9 (inferred), free peptide) [SA34], the IC50 is reported as 28200 nM. B7 was tested, and the IC50 was 24500 nM. Binder B8 has an IC50 of 125000 nM.
